Measurements as given in publication PMC3902935.

B1: JL988 80-nt ssDNA (ssDNA)
DNA: ATTATTATTATTATTATTATTATTATTATTATTATTATTATTATTTCATTTATTTATTTATTTATTTATTTATTTATTTA
B2: JL987 70-nt ssDNA (ssDNA)
DNA: ATTATTATTATTATTATTATTATTATTATTATTATTATTTCATTTATTTATTTATTTATTTATTTATTTA
B3: JL986 60-nt ssDNA (ssDNA)
DNA: ATTATTATTATTATTATTATTATTATTATTATTTCATTTATTTATTTATTTATTTATTTA

Experiments:
APOBEC3A (A3A) WT [1] = biological target: T1, APOBEC3A (A3A) WT (human, UniProt P31941 1-199); experiment: NMR titration (1H-15N HSQC); 25 mM sodium phosphate pH 6.9, 10 mM DTT, 25 C; Zn2+ enzyme; NMR: 25 mM sodium phosphate pH 6.9, 10 mM DTT, 25 C, 0.074 mM A3A; EMSA: protocol of Byeon et al. (ref 16), buffer not given, 20 nM DNA, 25-100 uM A3A
T1 sequence (P31941 whole entry): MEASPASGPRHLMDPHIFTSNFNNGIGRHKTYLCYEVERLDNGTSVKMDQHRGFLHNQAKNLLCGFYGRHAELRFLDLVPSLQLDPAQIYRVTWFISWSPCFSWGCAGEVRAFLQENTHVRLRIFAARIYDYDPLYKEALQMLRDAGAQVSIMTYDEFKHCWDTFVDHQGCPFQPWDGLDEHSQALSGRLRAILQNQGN

APOBEC3A E72Q = APOBEC3A E72Q (human, UniProt P31941 1-199, E72Q); experiment: EMSA; 60 or 80 uM protein; similar to WT; NMR: 25 mM sodium phosphate pH 6.9, 10 mM DTT, 25 C, 0.074 mM A3A; EMSA: protocol of Byeon et al. (ref 16), buffer not given, 20 nM DNA, 25-100 uM A3A
Sequence of APOBEC3A E72Q (P31941 whole entry E72Q): as the sequence (P31941 whole entry) above, with E72Q counted along it

APOBEC3A Y130F = APOBEC3A Y130F (human, UniProt P31941 1-199, Y130F); experiment: as above
Sequence of APOBEC3A Y130F (P31941 whole entry Y130F): as the sequence (P31941 whole entry) above, with Y130F counted along it

APOBEC3A D131E = APOBEC3A D131E (human, UniProt P31941 1-199, D131E); experiment: as above
Sequence of APOBEC3A D131E (P31941 whole entry D131E): as the sequence (P31941 whole entry) above, with D131E counted along it

APOBEC3A (A3A) WT [2] = biological target: T1, APOBEC3A (A3A) WT; experiment: EMSA; 20 nM DNA; NMR: 25 mM sodium phosphate pH 6.9, 10 mM DTT, 25 C, 0.074 mM A3A; EMSA: protocol of Byeon et al. (ref 16), buffer not given, 20 nM DNA, 25-100 uM A3A

| Binder | Kd (APOBEC3A (A3A) WT [1]) [µM] | binding result (APOBEC3A E72Q) | binding result (APOBEC3A Y130F) | binding result (APOBEC3A D131E) | binding result (APOBEC3A (A3A) WT [2]) |
| --- | --- | --- | --- | --- | --- |
| AUUUCAUUU (ssRNA) [JL1181 9-nt ssRNA] | 420 ± 70 |  |  |  |  |
| B1 |  | binds | binds | binds | binds |
| B2 |  |  |  |  | binds |
| B3 |  |  |  |  | binds |
